Assays:
Assay in all cases: Biacore
Mouse FGFR3b = target: T1, Mouse FGFR3b (UniProt Q61851 21-801)
T1 chain: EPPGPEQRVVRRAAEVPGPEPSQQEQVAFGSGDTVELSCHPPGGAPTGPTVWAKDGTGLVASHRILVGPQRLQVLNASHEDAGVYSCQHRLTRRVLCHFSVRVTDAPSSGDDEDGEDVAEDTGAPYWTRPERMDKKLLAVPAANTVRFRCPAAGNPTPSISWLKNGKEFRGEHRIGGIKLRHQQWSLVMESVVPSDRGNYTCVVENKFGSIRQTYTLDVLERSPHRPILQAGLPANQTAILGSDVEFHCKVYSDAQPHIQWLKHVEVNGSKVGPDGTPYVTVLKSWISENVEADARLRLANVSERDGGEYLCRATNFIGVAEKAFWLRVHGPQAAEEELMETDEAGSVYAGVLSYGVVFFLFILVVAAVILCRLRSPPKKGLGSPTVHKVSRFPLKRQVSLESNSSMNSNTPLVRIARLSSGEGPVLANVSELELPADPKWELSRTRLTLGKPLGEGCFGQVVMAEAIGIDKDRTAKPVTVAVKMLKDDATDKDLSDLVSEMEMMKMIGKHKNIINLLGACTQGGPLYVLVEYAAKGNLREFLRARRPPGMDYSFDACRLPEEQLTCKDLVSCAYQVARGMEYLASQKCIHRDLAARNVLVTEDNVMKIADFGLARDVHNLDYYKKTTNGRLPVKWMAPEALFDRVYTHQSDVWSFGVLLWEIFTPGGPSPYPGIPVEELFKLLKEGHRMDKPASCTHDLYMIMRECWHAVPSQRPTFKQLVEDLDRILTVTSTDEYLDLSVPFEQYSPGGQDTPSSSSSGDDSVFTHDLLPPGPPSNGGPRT

Human FGFR3b = target: T2, Human FGFR3b (UniProt P22607 23-806)
T2 chain: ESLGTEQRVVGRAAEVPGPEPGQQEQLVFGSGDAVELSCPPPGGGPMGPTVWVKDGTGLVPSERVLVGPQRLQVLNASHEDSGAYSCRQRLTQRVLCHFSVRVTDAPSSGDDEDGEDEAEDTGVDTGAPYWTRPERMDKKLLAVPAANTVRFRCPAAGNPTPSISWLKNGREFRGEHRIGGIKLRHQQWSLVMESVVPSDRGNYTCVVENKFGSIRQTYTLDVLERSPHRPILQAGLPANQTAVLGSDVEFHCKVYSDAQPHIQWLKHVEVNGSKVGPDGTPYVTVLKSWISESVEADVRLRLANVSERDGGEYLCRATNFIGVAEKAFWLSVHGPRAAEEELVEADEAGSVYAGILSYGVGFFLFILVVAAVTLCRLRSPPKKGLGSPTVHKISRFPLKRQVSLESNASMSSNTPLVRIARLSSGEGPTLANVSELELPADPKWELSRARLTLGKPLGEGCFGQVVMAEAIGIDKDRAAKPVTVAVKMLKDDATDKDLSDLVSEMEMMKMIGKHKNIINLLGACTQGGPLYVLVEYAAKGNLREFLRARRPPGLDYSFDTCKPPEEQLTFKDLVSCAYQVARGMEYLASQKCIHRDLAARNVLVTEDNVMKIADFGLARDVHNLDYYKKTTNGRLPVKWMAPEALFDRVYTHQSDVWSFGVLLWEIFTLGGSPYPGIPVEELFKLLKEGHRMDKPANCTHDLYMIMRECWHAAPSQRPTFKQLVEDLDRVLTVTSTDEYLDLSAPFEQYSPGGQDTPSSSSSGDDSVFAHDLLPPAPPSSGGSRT

[1] = target: T3, Human FGFR3b.mmh (REGN3152) (UniProt P22607 23-806)
T3 chain: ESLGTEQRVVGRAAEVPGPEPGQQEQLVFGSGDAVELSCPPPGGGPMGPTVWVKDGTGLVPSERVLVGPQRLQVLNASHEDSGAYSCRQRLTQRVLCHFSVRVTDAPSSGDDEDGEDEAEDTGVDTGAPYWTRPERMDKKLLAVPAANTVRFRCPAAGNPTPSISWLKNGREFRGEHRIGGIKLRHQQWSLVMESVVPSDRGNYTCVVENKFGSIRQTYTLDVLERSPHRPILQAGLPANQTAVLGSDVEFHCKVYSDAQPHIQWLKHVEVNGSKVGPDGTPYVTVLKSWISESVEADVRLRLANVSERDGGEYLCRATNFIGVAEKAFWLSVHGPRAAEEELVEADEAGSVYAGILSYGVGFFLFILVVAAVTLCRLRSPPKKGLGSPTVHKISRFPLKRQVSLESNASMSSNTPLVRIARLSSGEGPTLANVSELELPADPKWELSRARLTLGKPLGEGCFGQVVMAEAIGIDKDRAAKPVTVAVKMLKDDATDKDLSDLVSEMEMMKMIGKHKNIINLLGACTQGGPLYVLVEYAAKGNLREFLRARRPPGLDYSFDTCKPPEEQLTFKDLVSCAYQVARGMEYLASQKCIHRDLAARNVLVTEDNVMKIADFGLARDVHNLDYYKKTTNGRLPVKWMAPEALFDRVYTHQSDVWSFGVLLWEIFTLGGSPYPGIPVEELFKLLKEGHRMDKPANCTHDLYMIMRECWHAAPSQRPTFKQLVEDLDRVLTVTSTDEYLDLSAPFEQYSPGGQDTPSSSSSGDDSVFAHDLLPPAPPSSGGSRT

[2] = target: T4, Mouse FGFR3b.mmh (REGN3215) (UniProt Q61851 21-801)
T4 chain: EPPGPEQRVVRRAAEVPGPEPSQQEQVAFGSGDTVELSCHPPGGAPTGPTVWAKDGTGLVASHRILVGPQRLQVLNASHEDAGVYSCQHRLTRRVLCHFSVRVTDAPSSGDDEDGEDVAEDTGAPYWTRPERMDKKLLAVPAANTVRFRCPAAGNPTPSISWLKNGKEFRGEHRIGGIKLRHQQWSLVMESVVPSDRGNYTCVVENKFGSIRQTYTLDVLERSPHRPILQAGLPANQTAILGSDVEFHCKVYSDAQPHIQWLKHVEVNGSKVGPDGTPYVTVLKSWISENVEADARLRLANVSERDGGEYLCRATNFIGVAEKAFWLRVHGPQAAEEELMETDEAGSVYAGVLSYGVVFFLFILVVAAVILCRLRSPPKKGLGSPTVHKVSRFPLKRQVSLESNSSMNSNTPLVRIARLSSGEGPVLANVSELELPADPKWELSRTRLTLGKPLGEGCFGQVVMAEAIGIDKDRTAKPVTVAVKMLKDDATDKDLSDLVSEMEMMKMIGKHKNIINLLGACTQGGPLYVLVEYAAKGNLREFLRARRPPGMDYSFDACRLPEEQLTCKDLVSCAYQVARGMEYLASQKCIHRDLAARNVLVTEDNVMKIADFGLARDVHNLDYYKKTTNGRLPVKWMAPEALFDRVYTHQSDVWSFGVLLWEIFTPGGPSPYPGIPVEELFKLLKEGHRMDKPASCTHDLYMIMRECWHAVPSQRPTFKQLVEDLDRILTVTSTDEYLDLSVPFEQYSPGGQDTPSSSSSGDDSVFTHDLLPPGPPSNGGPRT

Kd (Mouse FGFR3b): 1.4 nM
Kd (Human FGFR3b): 2.59 nM
Kd [1]: 2.59 nM
Kd [2]: 1.4 nM
B1: mAb063 (antibody, V domains shown)
VH: QVQLQESGPGLVKPSETLSLTCTVSGDSINSYFWSWIRQLPGKELEWIGHIYSSGSTRYNPSLQSRVTISIDTSKNQFSLKLSSVTAADTAVYYCARGASAVDYWGQGTLVTVSS
VL: EIVLTQSPGTLSLSPGERATLSCRTSQSISSGYLAWYQQKPGQAPRLLIYGASRRATGIPDRFSGSGSGTDFTLTISRLEPEDFVVYYCQQYGSSPYTFGQGTKLEIKR
